Source: patent US20120135923A1 (IPSEN PHARMA S A S, published 2012)
Bridge positions count the residues as written; N and C are the ends. Square brackets hold non-standard residues; d marks the D form. Ends that are not written are not given here. 1Nal = N[C@@H](Cc1cccc2ccccc12)C(=O)O; d2Nal = N[C@H](Cc1ccc2ccccc2c1)C(=O)O; Bta = N[C@@H](Cc1csc2ccccc12)C(=O)O; Aic = NC1(C(=O)O)Cc2ccccc2C1; Pen = CC(C)(S)[C@H](N)C(=O)O; Ac6c = NC1(C(=O)O)CCCCC1; Nle = CCCC[C@H](N)C(=O)O; Ac3c = NC1(C(=O)O)CC1; Aib = CC(C)(N)C(=O)O; GABA = NCCCC(=O)O; βAla = NCCC(=O)O

Experiments:
hMC3-R = biological target: T1, hMC3-R (human, UniProt P41968 1-323); test: competition with [125I]-NDP-α-MSH, CHO-K1 membranes
T1 construct: whole, on cells; Assayed as membranes of CHO-K1 cells expressing the receptor; also called hMC-R receptor subtype 3; melacortin-3 (MC3-R)
T1 sequence (P41968 whole entry): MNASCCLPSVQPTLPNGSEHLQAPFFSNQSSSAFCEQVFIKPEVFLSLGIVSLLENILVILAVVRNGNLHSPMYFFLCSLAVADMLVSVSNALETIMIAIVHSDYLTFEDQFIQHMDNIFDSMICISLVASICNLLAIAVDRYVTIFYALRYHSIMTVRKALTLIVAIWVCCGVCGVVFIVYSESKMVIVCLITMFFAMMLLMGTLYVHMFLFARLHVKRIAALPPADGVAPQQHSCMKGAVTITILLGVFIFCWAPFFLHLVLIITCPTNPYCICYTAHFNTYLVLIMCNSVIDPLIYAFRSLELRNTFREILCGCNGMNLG
Protocol: (§1) Cellular membranes used for the in vitro receptor binding assays were obtained from transgenic CHO-K1 cells stably expressing hMC-R receptor subtypes 1, 3, 4 or 5. […] The pellets were resuspended in the same buffer and centrifuged at 50,000 g for 10 minutes at approximately 4° C. The washed pellets containing the cellular membranes were stored at approximately −80° C.
(§2) Competitive inhibition of [¹²⁵I](Tyr²)-(Nle⁴-D-Phe⁷)α-MSH ([¹²⁵I]-NDP-α-MSH, Amersham Biosciences®) binding was carried out in polypropylene 96 well plates. Cell membranes (1-10 μg protein/well) prepared as described above were incubated in 50 mM Tris-HCl at pH 7.4 containing 0.2% bovine serum albumin (BSA), 5 mM MgCl₂, 1 mM CaCl₂ and 0.1 mg/mL bacitracin, with increasing concentrations of the test compound and 0.1-0.3 nM […] for approximately 90-120 minutes at approximately 37° C. Bound [¹²⁵I]-NDP-α-MSH ligand was separated from free [¹²⁵I]-NDP-α-MSH by filtration through GF/C glass fiber filter plates (Unifilter®; Packard) presoaked with 0.1% (w/v) polyethylenimine (PEI), using a Packard Filtermate® harvester. Filters were washed three times with 50 mM Tris-HCl at pH 7.4 at a temperature of approximately 0-4° C. and then assayed for radioactivity using a Packard Topcount® scintillation counter. Binding data were analyzed by computer-assisted non-linear regression analysis (XL fit; IDBS).

hMC4-R = biological target: T2, hMC4-R (human, UniProt P32245 1-332); test: as above
T2 construct: whole, on cells; Assayed as membranes of CHO-K1 cells expressing the receptor; also called hMC-R receptor subtype 4; melanocortin-4 (MC4-R)
T2 sequence (P32245 whole entry): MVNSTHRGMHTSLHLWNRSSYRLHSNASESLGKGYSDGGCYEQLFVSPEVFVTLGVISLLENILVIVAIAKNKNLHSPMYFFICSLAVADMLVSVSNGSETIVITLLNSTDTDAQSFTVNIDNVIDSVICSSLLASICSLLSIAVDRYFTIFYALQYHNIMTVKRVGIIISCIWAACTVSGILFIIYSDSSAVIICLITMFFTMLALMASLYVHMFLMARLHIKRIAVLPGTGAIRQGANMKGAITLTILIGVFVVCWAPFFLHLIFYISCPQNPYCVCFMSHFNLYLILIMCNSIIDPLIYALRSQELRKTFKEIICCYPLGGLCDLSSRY
Protocol: as §1, §2

hMC1-R [1] = biological target: T3, hMC1-R (human, UniProt Q01726 1-317); test: as above
T3 construct: whole, on cells; Assayed as membranes of CHO-K1 cells expressing the receptor; also called hMC-R receptor subtype 1; melanocyte-specific receptor (MC1-R)
T3 sequence (Q01726 whole entry): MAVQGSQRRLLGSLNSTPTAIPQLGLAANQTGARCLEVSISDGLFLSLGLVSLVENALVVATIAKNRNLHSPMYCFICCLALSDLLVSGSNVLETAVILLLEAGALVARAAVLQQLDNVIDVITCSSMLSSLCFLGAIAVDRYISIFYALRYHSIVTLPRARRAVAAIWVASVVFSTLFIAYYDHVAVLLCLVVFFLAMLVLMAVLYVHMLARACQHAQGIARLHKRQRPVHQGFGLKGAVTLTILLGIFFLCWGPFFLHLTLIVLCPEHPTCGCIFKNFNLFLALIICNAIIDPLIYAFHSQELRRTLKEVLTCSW
Protocol: as §1, §2

hMC5-R = biological target: T4, hMC5-R (human, UniProt P33032 1-325); test: as above
T4 construct: whole, on cells; Assayed as membranes of CHO-K1 cells expressing the receptor; also called hMC-R receptor subtype 5; melanocortin-5 receptor (MC5-R)
T4 sequence (P33032 whole entry): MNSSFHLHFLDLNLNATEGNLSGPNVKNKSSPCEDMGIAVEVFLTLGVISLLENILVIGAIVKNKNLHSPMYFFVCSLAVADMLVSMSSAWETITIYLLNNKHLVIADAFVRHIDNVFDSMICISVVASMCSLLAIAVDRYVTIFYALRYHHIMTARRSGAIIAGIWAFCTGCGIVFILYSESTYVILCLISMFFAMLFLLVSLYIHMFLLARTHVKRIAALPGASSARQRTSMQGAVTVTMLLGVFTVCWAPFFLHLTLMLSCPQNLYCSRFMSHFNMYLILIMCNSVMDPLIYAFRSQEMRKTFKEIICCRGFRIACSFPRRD
Protocol: as §1, §2

hMC1-R [2] = biological target: T3, hMC1-R; test: ratio Ki hMC1-R / Ki hMC4-R, same assay
Protocol: as §1, §2

[3] = biological target: T5, human melanocortin receptor subtype 5 (hMC5-R) (human, UniProt P33032 1-325); test: [125I]-NDP-α-MSH competition, membranes
T5 construct: whole, on cells; membranes of CHO-K1 cells
T5 sequence (P33032 whole entry): as above

[4] = biological target: T6, human melanocortin receptor subtype 3 (hMC3-R) (human, UniProt P41968 1-323); test: [125I]-NDP-α-MSH competition, membranes
T6 construct: whole, on cells; membranes of CHO-K1 cells
T6 sequence (P41968 whole entry): as the sequence (P41968 whole entry) above

[5] = biological target: T7, human melanocortin receptor subtype 4 (hMC4-R) (human, UniProt P32245 1-332); test: [125I]-NDP-α-MSH competition, membranes
T7 construct: whole, on cells; membranes of CHO-K1 cells
T7 sequence (P32245 whole entry): as the sequence (P32245 whole entry) above

[6] = biological target: T8, human melanocortin receptor subtype 1 (hMC1-R) (human, UniProt Q01726 1-317); test: [125I]-NDP-α-MSH competition, membranes
T8 construct: whole, on cells; membranes of CHO-K1 cells
T8 sequence (Q01726 whole entry): as the sequence (Q01726 whole entry) above

Binder | Ki (hMC3-R) [nM] | Ki (hMC4-R) [nM] | Ki (hMC1-R [1]) [nM] | Ki (hMC5-R) [nM] | Ki hMC1-R/MC4-R (hMC1-R [2]) | Ki [3] [nM] | Ki [4] [nM] | Ki [5] [nM] | Ki [6] [nM]
Ac-[Nle]CH[dF]R[dW][βAla]C-NH2 (disulfide 2-8; SMILES CCCC[C@H](NC(C)=O)C(=O)N[C@H]1CSSC[C@@H](C(N)=O)NC(=O)CCNC(=O)[C@@H](Cc2c[nH]c3ccccc23)NC(=O)[C@H](CCCNC(=N)N)NC(=O)[C@@H](Cc2ccccc2)NC(=O)[C@H](Cc2c[nH]cn2)NC1=O) [Ac-Nle-c(Cys-His-D-Phe-Arg-D-Trp-β-Ala-Cys)-NH2] | 14.1 | 1.96 | 0.323 | 24 | 0.16 |  |  |  | 
Ac-[Nle]C[dA]H[dF]RWAC-NH2 (disulfide 2-9) [Ac-Nle-c(Cys-D-Ala-His-D-Phe-Arg-Trp-Ala-Cys)-NH2] | 1130 | 22.1 | 9.12 | 2860 | 0.41 |  |  |  | 
Ac-[dR]CH[dF]RW[GABA][Pen]-NH2 (disulfide 2-8; SMILES CC(=O)N[C@H](CCCNC(=N)N)C(=O)N[C@H]1CSSC(C)(C)[C@@H](C(N)=O)NC(=O)CCCNC(=O)[C@H](Cc2c[nH]c3ccccc23)NC(=O)[C@H](CCCNC(=N)N)NC(=O)[C@@H](Cc2ccccc2)NC(=O)[C@H](Cc2c[nH]cn2)NC1=O) [Ac-D-Arg-c(Cys-His-D-Phe-Arg-Trp-Gaba-Pen)-NH2] | 172 | 11 | 3.93 | 538 | 0.36 |  |  |  | 
Ac-[Nle]D[dA]H[dF]RWK-NH2 (lactam 2-8; SMILES CCCC[C@H](NC(C)=O)C(=O)N[C@H]1CC(=O)NCCCC[C@@H](C(N)=O)NC(=O)[C@H](Cc2c[nH]c3ccccc23)NC(=O)[C@H](CCCNC(=N)N)NC(=O)[C@@H](Cc2ccccc2)NC(=O)[C@H](Cc2c[nH]cn2)NC(=O)[C@@H](C)NC1=O) [Ac-Nle-c(Asp-D-Ala-His-D-Phe-Arg-Trp-Lys)-NH2] | 98.9 | 2.55 | 0.659 | 4.19 | 0.26 |  |  |  | 
Ac-[Nle]D[dA]H[dF]R[Bta]K-NH2 (lactam 2-8; SMILES CCCC[C@H](NC(C)=O)C(=O)N[C@H]1CC(=O)NCCCC[C@@H](C(N)=O)NC(=O)[C@H](Cc2csc3ccccc23)NC(=O)[C@H](CCCNC(=N)N)NC(=O)[C@@H](Cc2ccccc2)NC(=O)[C@H](Cc2c[nH]cn2)NC(=O)[C@@H](C)NC1=O) [Ac-Nle-c(Asp-D-Ala-His-D-Phe-Arg-Bal-Lys)-NH2] | 445 | 50.6 | 4.12 | 4300 | 0.08 |  |  |  | 
Ac-C[dA]H[dF]RWAC-NH2 (disulfide 1-8) [Ac-c(Cys-D-Ala-His-D-Phe-Arg-Trp-Ala-Cys)-NH2] | 5990 | 96.7 | 199 |  | 2.06 |  |  |  | 
Ac-FCH[dF]RW[GABA]C-NH2 (disulfide 2-8) [Ac-Phe-c(Cys-His-D-Phe-Arg-Trp-Gaba-Cys)-NH2] |  |  |  |  | 0.12 |  |  |  | 
FCH[dF]RW[GABA]C-NH2 (disulfide 2-8; N-terminus assumed; SMILES N=C(N)NCCC[C@@H]1NC(=O)[C@@H](Cc2ccccc2)NC(=O)[C@H](Cc2c[nH]cn2)NC(=O)[C@@H](NC(=O)[C@@H](N)Cc2ccccc2)CSSC[C@@H](C(N)=O)NC(=O)CCCNC(=O)[C@H](Cc2c[nH]c3ccccc23)NC1=O) [Phe-c(Cys-His-D-Phe-Arg-Trp-Gaba-Cys)-NH2] |  | 4.93 | 0.186 | 0.537 | 0.04 |  |  |  | 
Ac-CEH[d2Nal]R[Bta]ACPPKD[βAla]Y[Aib]RKKRRQRRR-NH2 (disulfide 1-8; SMILES CC(=O)N[C@H]1CSSC[C@@H](C(=O)N2CCC[C@H]2C(=O)N2CCC[C@H]2C(=O)N[C@@H](CCCCN)C(=O)N[C@@H](CC(=O)O)C(=O)NCCC(=O)N[C@@H](Cc2ccc(O)cc2)C(=O)NC(C)(C)C(=O)N[C@@H](CCCNC(=N)N)C(=O)N[C@@H](CCCCN)C(=O)N[C@@H](CCCCN)C(=O)N[C@@H](CCCNC(=N)N)C(=O)N[C@@H](CCCNC(=N)N)C(=O)N[C@@H](CCC(N)=O)C(=O)N[C@@H](CCCNC(=N)N)C(=O)N[C@@H](CCCNC(=N)N)C(=O)N[C@@H](CCCNC(=N)N)C(N)=O)NC(=O)[C@H](C)NC(=O)[C@H](Cc2csc3ccccc23)NC(=O)[C@H](CCCNC(=N)N)NC(=O)[C@@H](Cc2ccc3ccccc3c2)NC(=O)[C@H](Cc2c[nH]cn2)NC(=O)[C@H](CCC(=O)O)NC1=O) |  |  |  |  |  | 91.8 | 10.2 | 0.783 | 7.84
Ac-CEH[d2Nal]R[1Nal]ACPPKD[βAla]RRRRRQRRR-NH2 (disulfide 1-8) [Ac-c(Cys-Glu-His-D-2-Nal-Arg-1-Nal-Ala-Cys)-Pro-Pro-Lys-Asp-β-[…]NH2] |  |  |  |  |  | 41.7 | 6.56 | 0.238 | 2.42
CEHXRXACPPKDXYGRKKRRQRRR (N-terminal Ac; D-2-Nal at 4; 1-Nal at 6; β-Ala at 13; disulfide Cys1-Cys8; C-terminal NH2) |  |  |  |  |  | 22.6 | 6.28 | 0.588 | 4.59
CEHXRXACPPKDXYGRKKRRQRRR (N-terminal Ac; D-2-Nal at 4; Bal at 6; β-Ala at 13; disulfide Cys1-Cys8; C-terminal NH2) |  |  |  |  |  | 15.3 | 5.22 | 0.38 | 6.46
XCAHFRWCXXYGRKKRRQRRR (N-terminal Ac; Nle at 1; D-Ala at 3; D-Phe at 5; Doc at 9 and 10; disulfide Cys2-Cys8; C-terminal NH2) [Ac-Nle-c(Cys-D-Ala-His-D-Phe-Arg-Trp-Cys)-(Doc)2-Tyr-Gly-Arg-Lys-Lys-Arg-Arg-Gln-Arg-Arg-Arg-NH2] |  |  |  |  |  | 118 | 0.665 | 0.635 | 0.211
D[Aic][d2Nal]RWK-NH2 (lactam 1-6; also: hydantoin ring: N-terminal N of Asp1 and backbone N of residue 2 bridged by one C(O), bridge at N via C(O), other end not in the chain) [c[Hydantoin(C(O)-(Asp-Aic))-D-2-Nal-Arg-Trp-Lys]-NH2] |  |  |  |  |  | 1160 | 2630 | 35.8 | 9030
D[Ac6c][d2Nal]RWK-NH2 (lactam 1-6; also: hydantoin ring: N-terminal N of Asp1 and backbone N of residue 2 bridged by one C(O), bridge at N via C(O), other end not in the chain) [c[Hydantoin(C(O)-(Asp-A6c))-D-2-Nal-Arg-Trp-Lys]-NH2] |  |  |  |  |  | 451 | 1480 | 16.5 | 2170
D[Ac3c][d2Nal]RWK-NH2 (lactam 1-6; also: hydantoin ring: N-terminal N of Asp1 and backbone N of residue 2 bridged by one C(O), bridge at N via C(O), other end not in the chain) [c[Hydantoin(C(O)-(Asp-A3c))-D-2-Nal-Arg-Trp-Lys]-NH2] |  |  |  |  |  | 2880 | 1920 | 420 | 7570
GCEH[dF]RWC-NH2 (disulfide 2-8; also: hydantoin ring from C(O) with Gly1-Cys2) [c[Hydantoin(C(O)-(Gly-Cys))-Glu-His-D-Phe-Arg-Trp-Cys]-NH2] |  |  |  |  |  | 3070 | 305 | 8.92 | 15.6
